From the supplement of paper PMC6757056
± gives the standard deviation of the averaged measurements.

B1: library; a variant is named by its letters at N, in order (parent)
chain: GCUGUCACCGGUGUAUUACCCUAGUGGUCGACCGGUCUGAUGAGUCUNNNNNNAGACGAAACAGC

Experiments:
hypoxanthine [1] = variants of: B1; test: normalized RNA/DNA level with ligand (relative to sTRSVctl = 100) (log10 (% of sTRSVctl)); ligand: hypoxanthine (xanthine aptamer); higher = less ribozyme self-cleavage, higher mRNA level; conditions: ligand concentration (+) RNA-Seq: 5 mM, HEK293T, reporter: mCherry (pCS4076), ligand present: yes
Procedure, shortened: (§1)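 RNA level was computed as RNA reads over DNA reads divided by a spiked-in non-cleaving sequence or by the top sequences, then scaled and log-transformed. Scaling was ×100 with log10, the top group was 25 sequences, and the threshold was ≥100 DNA reads. The reads came from HEK293T cells transfected at 4 µg per 6-well well with ribozyme switch library plasmids (mCherry, or eGFP in some ligand experiments). Total RNA was extracted with EDTA 72 h after transfection, with any ligand added 1 h before it.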

hypoxanthine [2] = variants of: B1; test: normalized RNA/DNA level without ligand (relative to sTRSVctl = 100) (log10 (% of sTRSVctl)); ligand: hypoxanthine (xanthine aptamer); higher = less ribozyme self-cleavage, higher mRNA level; conditions: HEK293T, reporter: mCherry (pCS4076), ligand present: no
Procedure, shortened: as §1

| Variant | normalized RNA/DNA level with ligand (log10) (hypoxanthine [1]) | normalized RNA/DNA level without ligand (log10) (hypoxanthine [2]) |
| --- | --- | --- |
| GCUGUCACCGGUGUAUUACCCUAGUGGUCGACCGGUCUGAUGAGUCUAGUUCUAGACGAAACAGC [AGUUCU] | 1.8964 ± 0.00099 | 1.86 ± 0.056 |
| GCUGUCACCGGUGUAUUACCCUAGUGGUCGACCGGUCUGAUGAGUCUGUAAGUAGACGAAACAGC [GUAAGU] | 1.94 ± 0.039 | 1.79 ± 0.019 |
| GCUGUCACCGGUGUAUUACCCUAGUGGUCGACCGGUCUGAUGAGUCUGGUGUUAGACGAAACAGC [GGUGUU] | 1.97 ± 0.051 | 1.88 ± 0.03 |
| GCUGUCACCGGUGUAUUACCCUAGUGGUCGACCGGUCUGAUGAGUCUACGCUCAGACGAAACAGC [ACGCUC] | 2.02 ± 0.048 | 1.908 ± 0.0022 |
| GCUGUCACCGGUGUAUUACCCUAGUGGUCGACCGGUCUGAUGAGUCUUCAUCCAGACGAAACAGC [UCAUCC] | 2.032 ± 0.0044 | 2 ± 0.049 |
| GCUGUCACCGGUGUAUUACCCUAGUGGUCGACCGGUCUGAUGAGUCUACCAAGAGACGAAACAGC [ACCAAG] | 1.89 ± 0.088 | 1.5 ± 0.098 |
| GCUGUCACCGGUGUAUUACCCUAGUGGUCGACCGGUCUGAUGAGUCUCAAGUAAGACGAAACAGC [CAAGUA] | 1.89 ± 0.054 | 1.779 ± 0.011 |
| GCUGUCACCGGUGUAUUACCCUAGUGGUCGACCGGUCUGAUGAGUCUUCGUGUAGACGAAACAGC [UCGUGU] | 1.82 ± 0.059 | 1.33 ± 0.041 |
| GCUGUCACCGGUGUAUUACCCUAGUGGUCGACCGGUCUGAUGAGUCUGAAGGCAGACGAAACAGC [GAAGGC] | 1.889 ± 0.016 | 1.52 ± 0.044 |
| GCUGUCACCGGUGUAUUACCCUAGUGGUCGACCGGUCUGAUGAGUCUACACUUAGACGAAACAGC [ACACUU] | 1.95 ± 0.059 | 1.83 ± 0.059 |
| GCUGUCACCGGUGUAUUACCCUAGUGGUCGACCGGUCUGAUGAGUCUAGGAUCAGACGAAACAGC [AGGAUC] | 1.99 ± 0.046 | 1.944 ± 0.013 |
| GCUGUCACCGGUGUAUUACCCUAGUGGUCGACCGGUCUGAUGAGUCUUCAUUAAGACGAAACAGC [UCAUUA] | 1.927 ± 0.0081 | 1.884 ± 0.0033 |
| GCUGUCACCGGUGUAUUACCCUAGUGGUCGACCGGUCUGAUGAGUCUAGGCACAGACGAAACAGC [AGGCAC] | 1.94 ± 0.021 | 1.83 ± 0.042 |
| GCUGUCACCGGUGUAUUACCCUAGUGGUCGACCGGUCUGAUGAGUCUAGUCAGAGACGAAACAGC [AGUCAG] | 1.86 ± 0.13 | 1.64 ± 0.041 |
| GCUGUCACCGGUGUAUUACCCUAGUGGUCGACCGGUCUGAUGAGUCUAUCUUCAGACGAAACAGC [AUCUUC] | 2.02 ± 0.031 | 2.006 ± 0.0047 |
| GCUGUCACCGGUGUAUUACCCUAGUGGUCGACCGGUCUGAUGAGUCUCAUCCCAGACGAAACAGC [CAUCCC] | 1.935 ± 0.0098 | 1.91 ± 0.033 |
| GCUGUCACCGGUGUAUUACCCUAGUGGUCGACCGGUCUGAUGAGUCUUUCCGCAGACGAAACAGC [UUCCGC] | 2.011 ± 0.003 | 1.89 ± 0.035 |
| GCUGUCACCGGUGUAUUACCCUAGUGGUCGACCGGUCUGAUGAGUCUCACGUGAGACGAAACAGC [CACGUG] | 1.92 ± 0.028 | 1.79 ± 0.095 |
| GCUGUCACCGGUGUAUUACCCUAGUGGUCGACCGGUCUGAUGAGUCUGGAAACAGACGAAACAGC [GGAAAC] | 1.939 ± 0.018 | 1.84 ± 0.014 |
| GCUGUCACCGGUGUAUUACCCUAGUGGUCGACCGGUCUGAUGAGUCUUUUAAAAGACGAAACAGC [UUUAAA] | 1.94 ± 0.034 | 1.76 ± 0.036 |
| GCUGUCACCGGUGUAUUACCCUAGUGGUCGACCGGUCUGAUGAGUCUGUAGCAAGACGAAACAGC [GUAGCA] | 1.8839 ± 9.6e-05 | 1.8 ± 0.023 |

| Variant | normalized RNA/DNA level with ligand (log10) (hypoxanthine [1]) | normalized RNA/DNA level without ligand (log10) (hypoxanthine [2]) |
| --- | --- | --- |
| GCUGUCACCGGUGUAUUACCCUAGUGGUCGACCGGUCUGAUGAGUCUUGGUGCAGACGAAACAGC [UGGUGC] | 1.94 ± 0.011 | 1.855 ± 0.0028 |
| GCUGUCACCGGUGUAUUACCCUAGUGGUCGACCGGUCUGAUGAGUCUACUACCAGACGAAACAGC [ACUACC] | 2 ± 0.03 | 1.9024 ± 0.00086 |
| GCUGUCACCGGUGUAUUACCCUAGUGGUCGACCGGUCUGAUGAGUCUGGCUCUAGACGAAACAGC [GGCUCU] | 2.03 ± 0.066 | 1.99 ± 0.064 |
| GCUGUCACCGGUGUAUUACCCUAGUGGUCGACCGGUCUGAUGAGUCUUCAACUAGACGAAACAGC [UCAACU] | 1.962 ± 0.016 | 1.883 ± 0.0061 |
| GCUGUCACCGGUGUAUUACCCUAGUGGUCGACCGGUCUGAUGAGUCUCUUAGCAGACGAAACAGC [CUUAGC] | 1.944 ± 0.011 | 1.87 ± 0.018 |
| GCUGUCACCGGUGUAUUACCCUAGUGGUCGACCGGUCUGAUGAGUCUUAGUAUAGACGAAACAGC [UAGUAU] | 1.93 ± 0.041 | 1.761 ± 0.015 |
| GCUGUCACCGGUGUAUUACCCUAGUGGUCGACCGGUCUGAUGAGUCUACAUCUAGACGAAACAGC [ACAUCU] | 1.97 ± 0.024 | 1.87 ± 0.073 |
| GCUGUCACCGGUGUAUUACCCUAGUGGUCGACCGGUCUGAUGAGUCUCCAGCUAGACGAAACAGC [CCAGCU] | 1.99 ± 0.097 | 1.94 ± 0.045 |
| GCUGUCACCGGUGUAUUACCCUAGUGGUCGACCGGUCUGAUGAGUCUUCGGGGAGACGAAACAGC [UCGGGG] | 1.98 ± 0.05 | 1.69 ± 0.035 |
| GCUGUCACCGGUGUAUUACCCUAGUGGUCGACCGGUCUGAUGAGUCUGGUACCAGACGAAACAGC [GGUACC] | 1.94 ± 0.067 | 1.921 ± 0.016 |
| GCUGUCACCGGUGUAUUACCCUAGUGGUCGACCGGUCUGAUGAGUCUAGCGGUAGACGAAACAGC [AGCGGU] | 1.91 ± 0.024 | 1.55 ± 0.049 |
| GCUGUCACCGGUGUAUUACCCUAGUGGUCGACCGGUCUGAUGAGUCUUCCGAUAGACGAAACAGC [UCCGAU] | 1.965 ± 0.013 | 1.774 ± 0.0086 |
| GCUGUCACCGGUGUAUUACCCUAGUGGUCGACCGGUCUGAUGAGUCUGGACUCAGACGAAACAGC [GGACUC] | 1.9331 ± 0.00093 | 1.92 ± 0.085 |
| GCUGUCACCGGUGUAUUACCCUAGUGGUCGACCGGUCUGAUGAGUCUUUGAUCAGACGAAACAGC [UUGAUC] | 1.952 ± 0.0039 | 2.02 ± 0.035 |
| GCUGUCACCGGUGUAUUACCCUAGUGGUCGACCGGUCUGAUGAGUCUCAGUCUAGACGAAACAGC [CAGUCU] | 1.98 ± 0.005 | 1.792 ± 0.016 |
| GCUGUCACCGGUGUAUUACCCUAGUGGUCGACCGGUCUGAUGAGUCUACCUGCAGACGAAACAGC [ACCUGC] | 1.99 ± 0.051 | 1.912 ± 0.016 |
| GCUGUCACCGGUGUAUUACCCUAGUGGUCGACCGGUCUGAUGAGUCUUGCGUGAGACGAAACAGC [UGCGUG] | 1.88 ± 0.027 | 1.68 ± 0.084 |
| GCUGUCACCGGUGUAUUACCCUAGUGGUCGACCGGUCUGAUGAGUCUGGGCUUAGACGAAACAGC [GGGCUU] | 1.98 ± 0.069 | 1.96 ± 0.029 |
| GCUGUCACCGGUGUAUUACCCUAGUGGUCGACCGGUCUGAUGAGUCUAUAUGCAGACGAAACAGC [AUAUGC] | 1.94 ± 0.0047 | 1.76 ± 0.018 |
| GCUGUCACCGGUGUAUUACCCUAGUGGUCGACCGGUCUGAUGAGUCUUCCAUUAGACGAAACAGC [UCCAUU] | 1.959 ± 0.0064 | 1.89 ± 0.05 |
| GCUGUCACCGGUGUAUUACCCUAGUGGUCGACCGGUCUGAUGAGUCUAGAGGGAGACGAAACAGC [AGAGGG] | 1.837 ± 0.0044 | 1.44 ± 0.035 |
